The record followed here is patent US20230019640A1 (Janssen / Centocor, published 2023).

This experiment concerns the target T1, mouse pIgR extracellular domain (ECD) (mouse, UniProt O70570 19-645).
T1 construct: The entry ends with a C-terminal HHHHHH tag; also called mpIgR; mpIgR ectodomain
T1 sequence: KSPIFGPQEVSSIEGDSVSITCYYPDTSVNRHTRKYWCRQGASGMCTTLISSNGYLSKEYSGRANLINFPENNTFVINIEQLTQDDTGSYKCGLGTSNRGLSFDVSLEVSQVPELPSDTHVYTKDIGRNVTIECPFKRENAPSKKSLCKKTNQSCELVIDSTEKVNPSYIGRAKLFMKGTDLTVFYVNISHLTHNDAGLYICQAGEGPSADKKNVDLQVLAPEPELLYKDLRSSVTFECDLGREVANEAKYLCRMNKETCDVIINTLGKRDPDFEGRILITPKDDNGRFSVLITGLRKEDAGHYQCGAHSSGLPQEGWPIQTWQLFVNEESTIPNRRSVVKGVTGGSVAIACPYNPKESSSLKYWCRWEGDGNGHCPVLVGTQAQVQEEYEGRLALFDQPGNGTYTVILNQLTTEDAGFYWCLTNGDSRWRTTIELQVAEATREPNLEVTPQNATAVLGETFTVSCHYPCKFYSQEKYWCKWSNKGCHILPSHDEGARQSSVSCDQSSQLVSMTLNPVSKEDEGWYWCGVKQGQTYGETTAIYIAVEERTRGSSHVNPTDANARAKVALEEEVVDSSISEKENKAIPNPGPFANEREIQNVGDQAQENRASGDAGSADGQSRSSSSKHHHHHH
The experiment in a line: not named on the sheet.

B1: VHH3 - linker-mono-Fc protein (Fc fusion)
chain: QLQLVESGGGLVQPGGSLRLSCAASGSIFSINVMGWYRQAPGKQRELVARINGGGITHYAESVKGRFTISRDNAKNTVYLQMNSLKPEDTAAYYCKADVFGSSGYVETYWGQGTQVTVSSEPKTPKPQPQPQLQPQPNPTTESKSPKSPAPELLGGPSVFLFPPKPKDTLMISRTPEVTCVVVDVSHEDPEVKFNWYVDGVEVHNAKTKPREEQYNSTYRVVSVLTVLHQDWLNGKEYKCKVSNKALPAPIEKTISKAKGQPREPQVYTKPPSREEMTKNQVSLSCLVKGFYPSDIAVEWESNGQPENNYKTTVPVLDSDGSFRLASYLTVDKSRWQQGNVFSCSVMHEALHNHYTQKSLSLSPGK
notes: also called VHH3-mono-Fc; hpIgR_021
As for B1, the binding result is given as “binds”.

B2: VHH2 - linker-mono-Fc protein (Fc fusion)
chain: EVQVVESGGGLVQAGGSLKLACAAPGLTFSSYRMGWFRQAPGQEREFVAAIDWNGRGTYYRYYADSVKGRSTISRDNAKNTVYLQMNSLKPEDTAVYYCAATTVLTDPRVLNEYATWGQGTQVTVSSEPKTPKPQPQPQLQPQPNPTTESKSPKSPAPELLGGPSVFLFPPKPKDTLMISRTPEVTCVVVDVSHEDPEVKFNWYVDGVEVHNAKTKPREEQYNSTYRVVSVLTVLHQDWLNGKEYKCKVSNKALPAPIEKTISKAKGQPREPQVYTKPPSREEMTKNQVSLSCLVKGFYPSDIAVEWESNGQPENNYKTTVPVLDSDGSFRLASYLTVDKSRWQQGNVFSCSVMHEALHNHYTQKSLSLSPGK
notes: also called VHH2-mono-Fc; mpIgR_338
As for B2, the binding result is on record as “binds”.
